The values that follow come from paper PMC6237974.

Broadly, the Kd is the equilibrium constant for the complex coming apart. What is called koff is a measure of how fast the partners let go of each other. A low value points to slow dissociation. Usually stoichiometry N stands for the number of molecules, sites or subunits per partner or assembly.

The subject of data set [1] is VgrR-P (phosphorylated by VgrS + ATP) (Xanthomonas campestris pv. campestris 8004). In words: MST. As to conditions: MST: 50 mM Tris-HCl pH 7.4, 150 mM NaCl, 10 mM MgCl2, 0.05% Tween-20; EMSA: 10 mM Tris-HCl pH 7.5, 50 mM KCl, 1 mM DTT, 50 ng poly(dI:dC), 10 mM EDTA, 28 C. For orientation: A gel shift assay detects complexes by their altered migration in electrophoresis.

Data set [2] deals with cytoplasmic region of VgrS that contained the HAMP and transmitter regions (Xanthomonas campestris pv. campestris 8004). In words: not stated; Supplementary Fig. 4b and 4c; Prc with the cytoplasmic region of VgrS.
The next data set deals with VgrS sensor. Put plainly: SPR.
Data set [3] has as its target VgrS sensor (Xanthomonas campestris pv. campestris 8004). In words: SPR; Biacore 3000, VgrS sensor trapped on a CM5 chip, Prc forms injected at 30 μl/min, 25 °C, PBST pH 7.4. On the technique in general: Surface plasmon resonance follows binding to a sensor surface in real time, without labels.
Data set [4] shares this target. Put plainly: MST; VgrS sensor labelled with NT-647, titrated with Prc forms in NTA buffer (300 mM NaCl, 50 mM sodium phosphate, pH 7.0) with 0.05% Tween; Monolith NT.115; three replicates.
Data set [5] deals with Prc^S475A monomer (Xanthomonas campestris pv. campestris 8004). In words: SEC + AUC; Prc^S475A separated by gel filtration; sedimentation velocity of each peak at 20 °C, sodium phosphate buffer pH 8.0 plus 150 mM NaCl. (In general: Size exclusion chromatography separates by hydrodynamic size, large species first.)

PXC_3300 promoter probe: the dissociation constant (Kd) in data set [1] amounted to 30.7 µM.
The substance “Prc (form not told, binding to the cytoplasmic region of VgrS) (enzyme)” displayed a Kd in data set [2] of 191 µM.
Prc^S475A monomer: in the data set with VgrS sensor (enzyme), the Ka was 29500 M⁻¹ and the koff stood at 0.00842 s⁻¹.
Consider Prc^S475A monomer (enzyme), for which the dissociation constant Kd in data set [3] stood at 33.9 µM; in data set [4], 0.65 µM. Also, the stoichiometry N in data set [5] came out at 3.
PrcΔPDZ^S475A (enzyme) had a Kd in data set [4] of 1.95 µM.
Regarding “recombinant Prc^S475A containing peptidase and DUF regions”, the Ka with VgrS sensor (domain or fragment) amounted to 44700 M⁻¹.
Take “recombinant Prc^S475A containing peptidase and DUF regions (domain or fragment)”: the equilibrium dissociation constant (Kd) in data set [3] stood at 22.4 µM; in data set [4], 0.27 µM.
